Assays:
[1] = target: T1, PTBP1 (GST-SBP-PTBP1) (UniProt P26599-1 1-531); assay: bead pull-down with RT-qPCR
[2] = target: T1, PTBP1 (GST-SBP-PTBP1); assay: fluorescence polarization

B1: Capzb intron WT transcript with adapters (ssRNA)
RNA: AGUUGUACAGUCCGACGAUGCGGUGGCCUUCUCCUGUCUCUGCCUUUGCCCACGGCUGCCAGGUUCUUGUUCGGCAUUGCUGUUGCUCUCUUGCUGUGGCUUCACCCUCUCUGAACACUCUCUGUAGUGCAGUCGUCGAGUGUCAACG
[1]
  binding result: binds

B2: Capzb intron oligo (ssRNA)
RNA: CUCUCUGAACACUCUCU
[2]
  Kd: ~3 nM

B3: Capzb exon oligo (ssRNA)
RNA: AUCUCUUGAUGCUAUCC
[2]
  Kd: ~6 nM

B4: Fnbp1 exon oligo (ssRNA)
RNA: CUUUCUCUCAAGCU
[2]
  Kd: ~8 nM

B5: Fnbp1 intron oligo (ssRNA)
RNA: CUCUCUCUCUCUCUCUC
[2]
  Kd: ~2 nM
